System: Escherichia coli TOP10
Assay: shrunken log2 fold change of peptide-encoding DNA abundance (4.5 h post-induction vs induction); higher = less antimicrobial activity (less host growth inhibition)
Settings: time post-induction: 4.5 h; library: site-saturation at positions 5, 18, 19, 20
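Note: peptides expressed intracellularly from a pBAD plasmid library in pooled LB shake-flask culture, induced with 0.3% L-arabinose, DNA abundance read by NGS, three biological replicates, DESeq2 with apeglm shrinkage.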

RRIRYRPPRLPRPRPRPPYPPRP
shrunken log2 fold change: -0.257

RRIRYRPPRLPRPRPRPPYTPRP
shrunken log2 fold change: -0.94

RRIRYRPPRLPRPRPRPQAAPRP
shrunken log2 fold change: -0.195

RRIRYRPPRLPRPRPRPQEMPRP
shrunken log2 fold change: -0.0143

RRIRYRPPRLPRPRPRPQFKPRP
shrunken log2 fold change: -0.134

RRIRYRPPRLPRPRPRPQGGPRP
shrunken log2 fold change: 0.0299

RRIRYRPPRLPRPRPRPQHMPRP
shrunken log2 fold change: -0.629

RRIRYRPPRLPRPRPRPQHSPRP
shrunken log2 fold change: -0.978

RRIRYRPPRLPRPRPRPQIDPRP
shrunken log2 fold change: 0.0753

RRIRYRPPRLPRPRPRPQITPRP
shrunken log2 fold change: -0.918

RRIRYRPPRLPRPRPRPQKFPRP
shrunken log2 fold change: -0.0224

RRIRYRPPRLPRPRPRPQLAPRP
shrunken log2 fold change: -0.228

RRIRYRPPRLPRPRPRPQMTPRP
shrunken log2 fold change: 0.0454

RRIRYRPPRLPRPRPRPQNFPRP
shrunken log2 fold change: -0.00184

RRIRYRPPRLPRPRPRPQQEPRP
shrunken log2 fold change: -0.0075

RRIRYRPPRLPRPRPRPQQPPRP
shrunken log2 fold change: 0.0699

RRIRYRPPRLPRPRPRPQRWPRP
shrunken log2 fold change: -0.13

RRIRYRPPRLPRPRPRPQSFPRP
shrunken log2 fold change: -0.0418

RRIRYRPPRLPRPRPRPQSHPRP
shrunken log2 fold change: -0.416

RRIRYRPPRLPRPRPRPQSYPRP
shrunken log2 fold change: -0.0246

RRIRYRPPRLPRPRPRPQVLPRP
shrunken log2 fold change: -0.725

RRIRYRPPRLPRPRPRPQYLPRP
shrunken log2 fold change: -3.15

RRIRYRPPRLPRPRPRPQYYPRP
shrunken log2 fold change: -1.52

RRIRYRPPRLPRPRPRPRAMPRP
shrunken log2 fold change: -0.0749

RRIRYRPPRLPRPRPRPRAPPRP
shrunken log2 fold change: 0.271

RRIRYRPPRLPRPRPRPRCLPRP
shrunken log2 fold change: -0.0564

RRIRYRPPRLPRPRPRPRCWPRP
shrunken log2 fold change: 0.136

RRIRYRPPRLPRPRPRPRDHPRP
shrunken log2 fold change: -0.308

RRIRYRPPRLPRPRPRPRDPPRP
shrunken log2 fold change: 0.271

RRIRYRPPRLPRPRPRPREQPRP
shrunken log2 fold change: -0.659

RRIRYRPPRLPRPRPRPREVPRP
shrunken log2 fold change: 0.00495

RRIRYRPPRLPRPRPRPRGAPRP
shrunken log2 fold change: 1.34

RRIRYRPPRLPRPRPRPRGYPRP
shrunken log2 fold change: -0.365

RRIRYRPPRLPRPRPRPRHAPRP
shrunken log2 fold change: -0.0916

RRIRYRPPRLPRPRPRPRHLPRP
shrunken log2 fold change: -0.142

RRIRYRPPRLPRPRPRPRINPRP
shrunken log2 fold change: -0.196

RRIRYRPPRLPRPRPRPRISPRP
shrunken log2 fold change: -0.218

RRIRYRPPRLPRPRPRPRLHPRP
shrunken log2 fold change: -0.415

RRIRYRPPRLPRPRPRPRLIPRP
shrunken log2 fold change: -0.466

RRIRYRPPRLPRPRPRPRNGPRP
shrunken log2 fold change: 0.0466

RRIRYRPPRLPRPRPRPRNNPRP
shrunken log2 fold change: -0.738

RRIRYRPPRLPRPRPRPRRAPRP
shrunken log2 fold change: 0.364

RRIRYRPPRLPRPRPRPRREPRP
shrunken log2 fold change: 0.0181

RRIRYRPPRLPRPRPRPRRHPRP
shrunken log2 fold change: -0.103

RRIRYRPPRLPRPRPRPRRTPRP
shrunken log2 fold change: -0.202

RRIRYRPPRLPRPRPRPRSCPRP
shrunken log2 fold change: -0.434

RRIRYRPPRLPRPRPRPRSSPRP
shrunken log2 fold change: 0.069

RRIRYRPPRLPRPRPRPRTCPRP
shrunken log2 fold change: -0.134

RRIRYRPPRLPRPRPRPRTEPRP
shrunken log2 fold change: -0.188

RRIRYRPPRLPRPRPRPRVNPRP
shrunken log2 fold change: 0.00364

RRIRYRPPRLPRPRPRPRWPPRP
shrunken log2 fold change: 0.498

RRIRYRPPRLPRPRPRPRYGPRP
shrunken log2 fold change: -0.678

RRIRYRPPRLPRPRPRPRYWPRP
shrunken log2 fold change: -0.317

RRIRYRPPRLPRPRPRPSALPRP
shrunken log2 fold change: -0.638

RRIRYRPPRLPRPRPRPSCSPRP
shrunken log2 fold change: -0.972

RRIRYRPPRLPRPRPRPSCTPRP
shrunken log2 fold change: -1.36

RRIRYRPPRLPRPRPRPSEMPRP
shrunken log2 fold change: -0.765

RRIRYRPPRLPRPRPRPSFMPRP
shrunken log2 fold change: -0.759

RRIRYRPPRLPRPRPRPSHYPRP
shrunken log2 fold change: -0.966

RRIRYRPPRLPRPRPRPSKKPRP
shrunken log2 fold change: -0.0925

RRIRYRPPRLPRPRPRPSLWPRP
shrunken log2 fold change: -0.0532

RRIRYRPPRLPRPRPRPSMDPRP
shrunken log2 fold change: -1.85

RRIRYRPPRLPRPRPRPSNPPRP
shrunken log2 fold change: -0.512

RRIRYRPPRLPRPRPRPSPCPRP
shrunken log2 fold change: -0.8

RRIRYRPPRLPRPRPRPSQHPRP
shrunken log2 fold change: -0.683

RRIRYRPPRLPRPRPRPSRFPRP
shrunken log2 fold change: -0.074

RRIRYRPPRLPRPRPRPSRGPRP
shrunken log2 fold change: -0.0776

RRIRYRPPRLPRPRPRPSRHPRP
shrunken log2 fold change: -0.649

RRIRYRPPRLPRPRPRPSRTPRP
shrunken log2 fold change: -0.342

RRIRYRPPRLPRPRPRPSSDPRP
shrunken log2 fold change: -0.218

RRIRYRPPRLPRPRPRPSSKPRP
shrunken log2 fold change: -1

RRIRYRPPRLPRPRPRPSTEPRP
shrunken log2 fold change: -0.435

RRIRYRPPRLPRPRPRPSTNPRP
shrunken log2 fold change: -0.757

RRIRYRPPRLPRPRPRPSYMPRP
shrunken log2 fold change: -1.41

RRIRYRPPRLPRPRPRPSYTPRP
shrunken log2 fold change: -1.38

RRIRYRPPRLPRPRPRPSYVPRP
shrunken log2 fold change: -1.29

RRIRYRPPRLPRPRPRPTALPRP
shrunken log2 fold change: -0.0277

RRIRYRPPRLPRPRPRPTCGPRP
shrunken log2 fold change: 0.0163

RRIRYRPPRLPRPRPRPTCIPRP
shrunken log2 fold change: -0.257

RRIRYRPPRLPRPRPRPTCLPRP
shrunken log2 fold change: -0.821

RRIRYRPPRLPRPRPRPTDKPRP
shrunken log2 fold change: -0.347

RRIRYRPPRLPRPRPRPTEVPRP
shrunken log2 fold change: -0.016

RRIRYRPPRLPRPRPRPTFEPRP
shrunken log2 fold change: -0.274

RRIRYRPPRLPRPRPRPTFQPRP
shrunken log2 fold change: -0.0033

RRIRYRPPRLPRPRPRPTGSPRP
shrunken log2 fold change: 0.0529

RRIRYRPPRLPRPRPRPTGYPRP
shrunken log2 fold change: -1.16

RRIRYRPPRLPRPRPRPTKIPRP
shrunken log2 fold change: -0.373

RRIRYRPPRLPRPRPRPTLFPRP
shrunken log2 fold change: -0.145

RRIRYRPPRLPRPRPRPTNAPRP
shrunken log2 fold change: -0.24

RRIRYRPPRLPRPRPRPTNHPRP
shrunken log2 fold change: -0.709

RRIRYRPPRLPRPRPRPTPQPRP
shrunken log2 fold change: 0.161

RRIRYRPPRLPRPRPRPTRSPRP
shrunken log2 fold change: -0.581

RRIRYRPPRLPRPRPRPTSEPRP
shrunken log2 fold change: -0.0408

RRIRYRPPRLPRPRPRPTTLPRP
shrunken log2 fold change: -0.0157

RRIRYRPPRLPRPRPRPTVDPRP
shrunken log2 fold change: 0.0546

RRIRYRPPRLPRPRPRPTVHPRP
shrunken log2 fold change: -1.3

RRIRYRPPRLPRPRPRPTVNPRP
shrunken log2 fold change: -0.45

RRIRYRPPRLPRPRPRPTVWPRP
shrunken log2 fold change: 0.385

RRIRYRPPRLPRPRPRPTVYPRP
shrunken log2 fold change: -0.686

RRIRYRPPRLPRPRPRPTYKPRP
shrunken log2 fold change: -1.17

RRIRYRPPRLPRPRPRPVAFPRP
shrunken log2 fold change: -0.717

RRIRYRPPRLPRPRPRPVATPRP
shrunken log2 fold change: -0.281

RRIRYRPPRLPRPRPRPVCTPRP
shrunken log2 fold change: -0.569

RRIRYRPPRLPRPRPRPVDSPRP
shrunken log2 fold change: 0.0413

RRIRYRPPRLPRPRPRPVDWPRP
shrunken log2 fold change: 0.145

RRIRYRPPRLPRPRPRPVFCPRP
shrunken log2 fold change: -0.419

RRIRYRPPRLPRPRPRPVFIPRP
shrunken log2 fold change: -0.929

RRIRYRPPRLPRPRPRPVFLPRP
shrunken log2 fold change: -0.538

RRIRYRPPRLPRPRPRPVFPPRP
shrunken log2 fold change: -0.0627

RRIRYRPPRLPRPRPRPVHGPRP
shrunken log2 fold change: -0.014

RRIRYRPPRLPRPRPRPVILPRP
shrunken log2 fold change: -0.0444

RRIRYRPPRLPRPRPRPVKYPRP
shrunken log2 fold change: -0.135

RRIRYRPPRLPRPRPRPVLIPRP
shrunken log2 fold change: -0.00211

RRIRYRPPRLPRPRPRPVLMPRP
shrunken log2 fold change: -0.83

RRIRYRPPRLPRPRPRPVMAPRP
shrunken log2 fold change: -0.335

RRIRYRPPRLPRPRPRPVNLPRP
shrunken log2 fold change: -0.0688

RRIRYRPPRLPRPRPRPVPAPRP
shrunken log2 fold change: -0.156

RRIRYRPPRLPRPRPRPVPDPRP
shrunken log2 fold change: -0.0838

RRIRYRPPRLPRPRPRPVPQPRP
shrunken log2 fold change: -0.0271

RRIRYRPPRLPRPRPRPVQSPRP
shrunken log2 fold change: -0.017

RRIRYRPPRLPRPRPRPVRDPRP
shrunken log2 fold change: -0.123

RRIRYRPPRLPRPRPRPVSQPRP
shrunken log2 fold change: -0.303

RRIRYRPPRLPRPRPRPVYWPRP
shrunken log2 fold change: -0.763

RRIRYRPPRLPRPRPRPWARPRP
shrunken log2 fold change: -0.116

RRIRYRPPRLPRPRPRPWCVPRP
shrunken log2 fold change: -0.55

RRIRYRPPRLPRPRPRPWDFPRP
shrunken log2 fold change: -0.0206

RRIRYRPPRLPRPRPRPWFAPRP
shrunken log2 fold change: -0.497

RRIRYRPPRLPRPRPRPWHKPRP
shrunken log2 fold change: -0.377

RRIRYRPPRLPRPRPRPWIYPRP
shrunken log2 fold change: -0.138

RRIRYRPPRLPRPRPRPWKKPRP
shrunken log2 fold change: 0.00843

RRIRYRPPRLPRPRPRPWLFPRP
shrunken log2 fold change: 0.0905

RRIRYRPPRLPRPRPRPWMYPRP
shrunken log2 fold change: -0.00277

RRIRYRPPRLPRPRPRPWPRPRP
shrunken log2 fold change: 0.209

RRIRYRPPRLPRPRPRPWRGPRP
shrunken log2 fold change: 0.318

RRIRYRPPRLPRPRPRPWRMPRP
shrunken log2 fold change: -0.369

RRIRYRPPRLPRPRPRPWRWPRP
shrunken log2 fold change: -0.036

RRIRYRPPRLPRPRPRPWSKPRP
shrunken log2 fold change: -0.0945

RRIRYRPPRLPRPRPRPWVIPRP
shrunken log2 fold change: -0.0317

RRIRYRPPRLPRPRPRPWVSPRP
shrunken log2 fold change: -0.013

RRIRYRPPRLPRPRPRPWWVPRP
shrunken log2 fold change: -0.0131

RRIRYRPPRLPRPRPRPWWWPRP
shrunken log2 fold change: 0.0798

RRIRYRPPRLPRPRPRPWYGPRP
shrunken log2 fold change: -0.258

RRIRYRPPRLPRPRPRPYCEPRP
shrunken log2 fold change: -0.0996

RRIRYRPPRLPRPRPRPYCWPRP
shrunken log2 fold change: -1.07

RRIRYRPPRLPRPRPRPYCYPRP
shrunken log2 fold change: -1.12

RRIRYRPPRLPRPRPRPYDAPRP
shrunken log2 fold change: -0.129

RRIRYRPPRLPRPRPRPYEHPRP
shrunken log2 fold change: -0.0505

RRIRYRPPRLPRPRPRPYFFPRP
shrunken log2 fold change: -0.792

RRIRYRPPRLPRPRPRPYGWPRP
shrunken log2 fold change: -0.187

RRIRYRPPRLPRPRPRPYHCPRP
shrunken log2 fold change: -0.00776

Source: the supplement of paper PMC9112550, “Optimization of the antimicrobial peptide Bac7 by deep mutational scanning” (BMC Biology, 2022)
